Biological target: KDM2B/FBXL10 (UniProt Q8NHM5)
Assay: co-IP, western blot
Conditions: reference: wild type, EGF-treated; sites S374

binding against the reference: stronger
Substance: c-Fos (from UniProt P01100) S374A, EGF-treated

— publication PMC4931990
